Molecular target: transmembrane tumor necrosis factor (tmTNF) knock-in mutant, on bone-marrow-derived macrophages of 3TG mice (TNFR1-/-, TNFR2-/-, tmTNF KI/KI) (mouse (endogenous in BMDMs)) (UniProt P06804)

## etanercept, a soluble form of TNFR2 coupled to human Fc domain (from UniProt P20333 23-257) (Fc fusion)
  internalization score of ETA-488 in 3TG BMDMs at 20 min, imaging cytometry: 0.73

Source: publication PMC8050384
